The stoichiometry N is the number of molecules, sites or subunits per partner or assembly.

The experiment has as its target mutant (M97S, F110S) EndoBAR (endophilin Bin–Amphiphysin–Rvs domain of mouse endophilinA1) (mouse). The experiment is described as follows: cross-linking.

For “mutant (M97S, F110S) EndoBAR (endophilin Bin–Amphiphysin–Rvs domain of mouse endophilinA1) (domain or fragment)”, the stoichiometry N is 2.

Source of the values: article PMC4927284.
